Consider 34 variants from the Human Domainome abundance scans (Beltran et al. 2025).

The labels stand for the following.
B1: Protein S100-G, residues 1 to 79; numbered along this chain, P02633 (parent)
chain: MSAKKSPEELKGIFEKYAAKEGDPNQLSKEELKLLLQTEFPSLLKGPSTLDELFEELDKNGDGEVSFEEFQVLVKKISQ

± gives the uncertainty stated by the source.

Variants of B1 are the subject of this data set. Description: abundance fitness (aPCA) (normalised: wild type 0, dead -1); higher = more abundant; growth selection in yeast, the domain comes from the species named. Conditions: Bos taurus.
On to MSAKKSPEELKGIFEKYAAKEGDPNQLSKEELKLLLQTEFPSLLKGPSTLDELFEELDKNGDGEVSFEEFQVLGKKISQ, for which the abundance fitness is -0.023 ± 0.071.

Take MSAKKSPEELKGIFEKYAAKEGDPNQLSKEELKLLLQTEFPSLLKGPSTLDELFEELDKNGDGEVSFEEFQVLRKKISQ: the abundance fitness was -0.245 ± 0.061.

As to MSAKKSPEELKGIFEKYAAKEGDPNQLSKEELKLLLQTEFPSLLKGPSTLDELFEELDKNGDGEVSFEEFQVLDKKISQ, the abundance fitness is -0.044 ± 0.083. Consider MSAKKSPEELKGIFEKYAAKEGDPNQLSKEELKLLLQTEFPSLLKGPSTLDELFEELDKNGDGEVSFEEFQVLEKKISQ, for which the abundance fitness is -0.004 ± 0.092. Consider MSAKKSPEELKGIFEKYAAKEGDPNQLSKEELKLLLQTEFPSLLKGPSTLDELFEELDKNGDGEVSFEEFQVLIKKISQ, for which the abundance fitness came to 0.066 ± 0.067.

As for MSAKKSPEELKGIFEKYAAKEGDPNQLSKEELKLLLQTEFPSLLKGPSTLDELFEELDKNGDGEVSFEEFQVLMKKISQ, the abundance fitness stood at 0.016 ± 0.072.

In the case of MSAKKSPEELKGIFEKYAAKEGDPNQLSKEELKLLLQTEFPSLLKGPSTLDELFEELDKNGDGEVSFEEFQVLCKKISQ, the abundance fitness was -0.069 ± 0.077. As to MSAKKSPEELKGIFEKYAAKEGDPNQLSKEELKLLLQTEFPSLLKGPSTLDELFEELDKNGDGEVSFEEFQVLNKKISQ, the abundance fitness is -0.001 ± 0.071. Regarding MSAKKSPEELKGIFEKYAAKEGDPNQLSKEELKLLLQTEFPSLLKGPSTLDELFEELDKNGDGEVSFEEFQVLWKKISQ, the abundance fitness is 0.063 ± 0.082.

For the variant MSAKKSPEELKGIFEKYAAKEGDPNQLSKEELKLLLQTEFPSLLKGPSTLDELFEELDKNGDGEVSFEEFQVLLKKISQ, the abundance fitness was -0.018 ± 0.054.

Consider MSAKKSPEELKGIFEKYAAKEGDPNQLSKEELKLLLQTEFPSLLKGPSTLDELFEELDKNGDGEVSFEEFQVLTKKISQ, for which the abundance fitness was determined as 0.024 ± 0.063.

For the variant MSAKKSPEELKGIFEKYAAKEGDPNQLSKEELKLLLQTEFPSLLKGPSTLDELFEELDKNGDGEVSFEEFQVLQKKISQ, the abundance fitness worked out at 0.102 ± 0.071. Regarding MSAKKSPEELKGIFEKYAAKEGDPNQLSKEELKLLLQTEFPSLLKGPSTLDELFEELDKNGDGEVSFEEFQVLKKKISQ, the abundance fitness was found to be 0.041 ± 0.078. As to MSAKKSPEELKGIFEKYAAKEGDPNQLSKEELKLLLQTEFPSLLKGPSTLDELFEELDKNGDGEVSFEEFQVLSKKISQ, the abundance fitness stood at 0 ± 0.057. In the case of MSAKKSPEELKGIFEKYAAKEGDPNQLSKEELKLLLQTEFPSLLKGPSTLDELFEELDKNGDGEVSFEEFQVLVRKISQ, the abundance fitness was -0.074 ± 0.068. With MSAKKSPEELKGIFEKYAAKEGDPNQLSKEELKLLLQTEFPSLLKGPSTLDELFEELDKNGDGEVSFEEFQVLVTKISQ, the abundance fitness was -0.073 ± 0.067.

In the case of MSAKKSPEELKGIFEKYAAKEGDPNQLSKEELKLLLQTEFPSLLKGPSTLDELFEELDKNGDGEVSFEEFQVLVIKISQ, the abundance fitness was -0.167 ± 0.081. Take MSAKKSPEELKGIFEKYAAKEGDPNQLSKEELKLLLQTEFPSLLKGPSTLDELFEELDKNGDGEVSFEEFQVLVCKISQ: the abundance fitness is -0.148 ± 0.092.

For MSAKKSPEELKGIFEKYAAKEGDPNQLSKEELKLLLQTEFPSLLKGPSTLDELFEELDKNGDGEVSFEEFQVLVDKISQ, the abundance fitness was -0.063 ± 0.098. Turning to MSAKKSPEELKGIFEKYAAKEGDPNQLSKEELKLLLQTEFPSLLKGPSTLDELFEELDKNGDGEVSFEEFQVLVQKISQ, the abundance fitness was -0.11 ± 0.083.

MSAKKSPEELKGIFEKYAAKEGDPNQLSKEELKLLLQTEFPSLLKGPSTLDELFEELDKNGDGEVSFEEFQVLVFKISQ: the abundance fitness is -0.151 ± 0.075.

As to MSAKKSPEELKGIFEKYAAKEGDPNQLSKEELKLLLQTEFPSLLKGPSTLDELFEELDKNGDGEVSFEEFQVLVLKISQ, the abundance fitness is -0.045 ± 0.059.

As for MSAKKSPEELKGIFEKYAAKEGDPNQLSKEELKLLLQTEFPSLLKGPSTLDELFEELDKNGDGEVSFEEFQVLVPKISQ, the abundance fitness is -0.186 ± 0.073.

Turning to MSAKKSPEELKGIFEKYAAKEGDPNQLSKEELKLLLQTEFPSLLKGPSTLDELFEELDKNGDGEVSFEEFQVLVYKISQ, the abundance fitness is -0.173 ± 0.084. MSAKKSPEELKGIFEKYAAKEGDPNQLSKEELKLLLQTEFPSLLKGPSTLDELFEELDKNGDGEVSFEEFQVLVVKISQ: the abundance fitness was -0.074 ± 0.076.

As to MSAKKSPEELKGIFEKYAAKEGDPNQLSKEELKLLLQTEFPSLLKGPSTLDELFEELDKNGDGEVSFEEFQVLVWKISQ, the abundance fitness was -0.125 ± 0.087. Regarding MSAKKSPEELKGIFEKYAAKEGDPNQLSKEELKLLLQTEFPSLLKGPSTLDELFEELDKNGDGEVSFEEFQVLVGKISQ, the abundance fitness was -0.022 ± 0.082. In the case of MSAKKSPEELKGIFEKYAAKEGDPNQLSKEELKLLLQTEFPSLLKGPSTLDELFEELDKNGDGEVSFEEFQVLVHKISQ it was 0.01 ± 0.078; in that of MSAKKSPEELKGIFEKYAAKEGDPNQLSKEELKLLLQTEFPSLLKGPSTLDELFEELDKNGDGEVSFEEFQVLVSKISQ, -0.023 ± 0.063; in that of MSAKKSPEELKGIFEKYAAKEGDPNQLSKEELKLLLQTEFPSLLKGPSTLDELFEELDKNGDGEVSFEEFQVLVMKISQ, -0.098 ± 0.079. Regarding MSAKKSPEELKGIFEKYAAKEGDPNQLSKEELKLLLQTEFPSLLKGPSTLDELFEELDKNGDGEVSFEEFQVLVKSISQ, the abundance fitness was -0.119 ± 0.061. With MSAKKSPEELKGIFEKYAAKEGDPNQLSKEELKLLLQTEFPSLLKGPSTLDELFEELDKNGDGEVSFEEFQVLVKRISQ, the abundance fitness was -0.094 ± 0.071. Turning to MSAKKSPEELKGIFEKYAAKEGDPNQLSKEELKLLLQTEFPSLLKGPSTLDELFEELDKNGDGEVSFEEFQVLVKWISQ, the abundance fitness was -0.293 ± 0.097.

Consider MSAKKSPEELKGIFEKYAAKEGDPNQLSKEELKLLLQTEFPSLLKGPSTLDELFEELDKNGDGEVSFEEFQVLVKMISQ, for which the abundance fitness is -0.218 ± 0.087.
